{"source": "the RNAGym collection of RNA variant scans (doi:10.1093/molbev/msab373)", "parents": {"B1": {"name": "Azoarcus group I ribozyme (parent)", "chain": "GUGCCUUGCGCCGGGAAACCACGCAAGGGAUGGUGUCAAAUUCGGCGAAACCUAAGCGCCCGCCCGGGCGUAUGGCAACGCCGAGCCAAGCUUCGGCGCCUGCGCCGAUGAAGGUGUAGAGACUAGACGGCACCCACCUAAGGCAAACGCUAUGGUGAAGGCAUAGUCCAGGGAGUGGCGAAAGUCACACAAACCGG"}}, "data": [{"variants_of": "B1", "assay": "reverse-splicing fitness (ratio to wild type); higher = more active; in vitro selection; Mg2+ level not given", "outline": "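An in vitro group I ribozyme library with randomized positions was T7-transcribed and gel-purified. In triplicate, 10 pmol RNA in EPPS pH 7.5 was reacted with 50 pmoles of a 30-nt RNA substrate for 1 h at 37 °C across several added MgCl2 levels (1–48 mM), then stopped with EDTA. Products were reverse transcribed from a substrate-complementary primer, PCR-amplified and sequenced (HiSeq 4000). Fitness is a variant's read proportion after selection over that before, normalised to wild type.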", "values": [{"variant": "C169A", "reverse-splicing fitness": 0.18}, {"variant": "A145G", "reverse-splicing fitness": 0.958}, {"variant": "A145U", "reverse-splicing fitness": 0.946}, {"variant": "A145C", "reverse-splicing fitness": 0.95}, {"variant": "A145G C150U C169A U176C", "reverse-splicing fitness": 0.0527}, {"variant": "A145G C150U C169A U176A", "reverse-splicing fitness": 0.0281}, {"variant": "A145G C150U C169A U176G", "reverse-splicing fitness": 0.00628}, {"variant": "C150G C169U U176A", "reverse-splicing fitness": 0.0131}, {"variant": "C150G C169U U176C", "reverse-splicing fitness": 0.0326}, {"variant": "C150G C169U U176G", "reverse-splicing fitness": 0.00596}, {"variant": "A145U C150U C169A U176A", "reverse-splicing fitness": 0.0236}, {"variant": "A145U C150U C169A U176C", "reverse-splicing fitness": 0.04}, {"variant": "A145U C150U C169A U176G", "reverse-splicing fitness": 0.00551}, {"variant": "A145U C150G C169A U176G", "reverse-splicing fitness": 0.00602}, {"variant": "A145U C150G C169A U176C", "reverse-splicing fitness": 0.0151}, {"variant": "A145U C150G C169A U176A", "reverse-splicing fitness": 0.0122}, {"variant": "A145C U176C", "reverse-splicing fitness": 0.843}, {"variant": "A145C U176A", "reverse-splicing fitness": 0.767}, {"variant": "A145C U176G", "reverse-splicing fitness": 0.411}, {"variant": "U176C", "reverse-splicing fitness": 0.815}, {"variant": "U176G", "reverse-splicing fitness": 0.348}, {"variant": "U176A", "reverse-splicing fitness": 0.87}, {"variant": "A145C C150A C169G U176G", "reverse-splicing fitness": 0.00531}, {"variant": "A145C C150A C169G U176C", "reverse-splicing fitness": 0.0203}, {"variant": "A145C C150A C169G U176A", "reverse-splicing fitness": 0.0271}, {"variant": "C150U U176G", "reverse-splicing fitness": 0.306}, {"variant": "C150U U176A", "reverse-splicing fitness": 0.814}, {"variant": "C150U U176C", "reverse-splicing fitness": 0.869}, {"variant": "C150U C169A", "reverse-splicing fitness": 0.0973}, {"variant": "C150U C169G", "reverse-splicing fitness": 0.172}, {"variant": "C150U C169U", "reverse-splicing fitness": 0.247}, {"variant": "C150A U176C", "reverse-splicing fitness": 0.398}, {"variant": "C150A U176G", "reverse-splicing fitness": 0.185}, {"variant": "C150A U176A", "reverse-splicing fitness": 0.406}, {"variant": "A145U U176A", "reverse-splicing fitness": 0.937}, {"variant": "A145U U176C", "reverse-splicing fitness": 0.911}, {"variant": "A145U U176G", "reverse-splicing fitness": 0.462}, {"variant": "A145U C169U U176C", "reverse-splicing fitness": 0.149}, {"variant": "A145U C169U U176A", "reverse-splicing fitness": 0.109}, {"variant": "A145U C169U U176G", "reverse-splicing fitness": 0.013}, {"variant": "A145C C169A", "reverse-splicing fitness": 0.167}, {"variant": "A145C C169G", "reverse-splicing fitness": 0.26}, {"variant": "A145C C169U", "reverse-splicing fitness": 0.351}, {"variant": "C150U C169A U176G", "reverse-splicing fitness": 0.00623}, {"variant": "C150U C169A U176A", "reverse-splicing fitness": 0.0259}, {"variant": "C150U C169A U176C", "reverse-splicing fitness": 0.0431}, {"variant": "A145U C150U C169U", "reverse-splicing fitness": 0.312}, {"variant": "A145U C150U C169G", "reverse-splicing fitness": 0.215}, {"variant": "A145U C150U C169A", "reverse-splicing fitness": 0.106}, {"variant": "A145U C169A U176C", "reverse-splicing fitness": 0.0523}, {"variant": "A145U C169A U176G", "reverse-splicing fitness": 0.00543}, {"variant": "A145U C169A U176A", "reverse-splicing fitness": 0.0255}, {"variant": "A145C C150A C169U U176A", "reverse-splicing fitness": 0.023}, {"variant": "A145C C150A C169U U176C", "reverse-splicing fitness": 0.0218}, {"variant": "A145C C150A C169U U176G", "reverse-splicing fitness": 0.00589}, {"variant": "A145C C150A U176A", "reverse-splicing fitness": 0.217}, {"variant": "A145C C150A U176G", "reverse-splicing fitness": 0.14}, {"variant": "A145C C150A U176C", "reverse-splicing fitness": 0.206}, {"variant": "A145G C169A U176A", "reverse-splicing fitness": 0.0412}, {"variant": "A145G C169A U176C", "reverse-splicing fitness": 0.0662}, {"variant": "A145G C169A U176G", "reverse-splicing fitness": 0.00541}, {"variant": "C150A C169G U176A", "reverse-splicing fitness": 0.026}, {"variant": "C150A C169G U176C", "reverse-splicing fitness": 0.0327}, {"variant": "C150A C169G U176G", "reverse-splicing fitness": 0.00565}, {"variant": "A145G C150A C169G", "reverse-splicing fitness": 0.0594}, {"variant": "A145G C150A C169U", "reverse-splicing fitness": 0.0924}, {"variant": "A145G C150A C169A", "reverse-splicing fitness": 0.0304}, {"variant": "A145G C150G C169U U176C", "reverse-splicing fitness": 0.0454}, {"variant": "A145G C150G C169U U176A", "reverse-splicing fitness": 0.0192}, {"variant": "A145G C150G C169U U176G", "reverse-splicing fitness": 0.00808}, {"variant": "A145G C150U C169G", "reverse-splicing fitness": 0.239}, {"variant": "A145G C150U C169A", "reverse-splicing fitness": 0.136}, {"variant": "A145G C150U C169U", "reverse-splicing fitness": 0.382}, {"variant": "A145G C150G C169G", "reverse-splicing fitness": 0.0446}, {"variant": "A145G C150G C169U", "reverse-splicing fitness": 0.0734}, {"variant": "A145G C150G C169A", "reverse-splicing fitness": 0.0272}, {"variant": "A145G C150U C169G U176A", "reverse-splicing fitness": 0.0615}, {"variant": "A145G C150U C169G U176G", "reverse-splicing fitness": 0.00685}, {"variant": "A145G C150U C169G U176C", "reverse-splicing fitness": 0.11}, {"variant": "A145G C150G C169G U176G", "reverse-splicing fitness": 0.00608}, {"variant": "A145G C150G C169G U176A", "reverse-splicing fitness": 0.014}, {"variant": "A145G C150G C169G U176C", "reverse-splicing fitness": 0.0156}, {"variant": "A145C C169U U176A", "reverse-splicing fitness": 0.106}, {"variant": "A145C C169U U176C", "reverse-splicing fitness": 0.156}, {"variant": "A145C C169U U176G", "reverse-splicing fitness": 0.0117}, {"variant": "A145U C150G C169U U176A", "reverse-splicing fitness": 0.0182}, {"variant": "A145U C150G C169U U176C", "reverse-splicing fitness": 0.0406}, {"variant": "A145U C150G C169U U176G", "reverse-splicing fitness": 0.00591}, {"variant": "A145G U176C", "reverse-splicing fitness": 0.91}, {"variant": "A145G U176A", "reverse-splicing fitness": 0.863}, {"variant": "A145G U176G", "reverse-splicing fitness": 0.325}, {"variant": "A120U U176G", "reverse-splicing fitness": 0.421}, {"variant": "A145G C150U U176A", "reverse-splicing fitness": 0.844}, {"variant": "A145G C150U U176G", "reverse-splicing fitness": 0.308}, {"variant": "A145G C150U U176C", "reverse-splicing fitness": 0.821}, {"variant": "A145U C150U C169G U176A", "reverse-splicing fitness": 0.0606}, {"variant": "A145U C150U C169G U176G", "reverse-splicing fitness": 0.008}, {"variant": "A145U C150U C169G U176C", "reverse-splicing fitness": 0.0907}, {"variant": "A145G C150A U176G", "reverse-splicing fitness": 0.184}, {"variant": "A145G C150A U176C", "reverse-splicing fitness": 0.464}, {"variant": "A145G C150A U176A", "reverse-splicing fitness": 0.472}, {"variant": "A145C C150G U176A", "reverse-splicing fitness": 0.364}, {"variant": "A145C C150G U176G", "reverse-splicing fitness": 0.114}, {"variant": "A145C C150G U176C", "reverse-splicing fitness": 0.388}, {"variant": "C150A C169U U176G", "reverse-splicing fitness": 0.00737}, {"variant": "C150A C169U U176A", "reverse-splicing fitness": 0.0369}, {"variant": "C150A C169U U176C", "reverse-splicing fitness": 0.0421}, {"variant": "A145C C169A U176C", "reverse-splicing fitness": 0.05}, {"variant": "A145C C169A U176A", "reverse-splicing fitness": 0.029}, {"variant": "A145C C169A U176G", "reverse-splicing fitness": 0.00461}, {"variant": "A145C C150G C169U U176G", "reverse-splicing fitness": 0.00549}, {"variant": "A145C C150G C169U U176C", "reverse-splicing fitness": 0.0427}, {"variant": "A145C C150G C169U U176A", "reverse-splicing fitness": 0.0183}, {"variant": "A145G C150A", "reverse-splicing fitness": 0.582}, {"variant": "A145G C150U", "reverse-splicing fitness": 0.93}, {"variant": "A145G C150G", "reverse-splicing fitness": 0.48}, {"variant": "A145G C150U C169U U176G", "reverse-splicing fitness": 0.00803}, {"variant": "A145G C150U C169U U176C", "reverse-splicing fitness": 0.149}, {"variant": "A145G C150U C169U U176A", "reverse-splicing fitness": 0.113}, {"variant": "C150G C169A U176C", "reverse-splicing fitness": 0.0144}, {"variant": "C150G C169A U176G", "reverse-splicing fitness": 0.00618}, {"variant": "C150G C169A U176A", "reverse-splicing fitness": 0.0121}, {"variant": "C150U C169G U176C", "reverse-splicing fitness": 0.0925}, {"variant": "C150U C169G U176G", "reverse-splicing fitness": 0.0074}, {"variant": "C150U C169G U176A", "reverse-splicing fitness": 0.0516}, {"variant": "A145U C150U C169U U176C", "reverse-splicing fitness": 0.141}, {"variant": "A145U C150U C169U U176G", "reverse-splicing fitness": 0.0111}, {"variant": "A145U C150U C169U U176A", "reverse-splicing fitness": 0.0998}]}]}
